In US20190367619A1 (ARGENX, published 2019):
Where a chain is given by its changes, count along the chain named. Values belong to the binder of their own block, whether it stands above or below them.

Experiments:
human galectin-10-His [1] = biological target: T1, human galectin-10-His (human); assay: SPR Biacore (summary table)
T1 construct: The last M of the tag may be Met1 of galectin-10; also called humanGal10-His; hGal10
T1 chain: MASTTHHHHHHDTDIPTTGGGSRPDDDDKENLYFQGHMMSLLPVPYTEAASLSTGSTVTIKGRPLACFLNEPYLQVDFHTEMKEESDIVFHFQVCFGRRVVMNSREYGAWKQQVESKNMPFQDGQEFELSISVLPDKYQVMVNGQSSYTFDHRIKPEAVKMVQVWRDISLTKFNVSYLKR
Protocol: (§1) The binding properties of the scFv-human Fc panel to galectin-10 were analyzed on the Biacore T3000. For this purpose, a CM5 Chip was coated with polyclonal anti-human Fc at 8000 RU, then a fixed concentration of the scFv-human Fc panel (1.5 μg/mL) were captured to reach a binding signal around 150 RU. Finally, a serial dilution of human or cynomolgus WGS isoform of galectin-10-His (serial dilution, 1 over 2 from 5 μg/mL, 6 points of dilution) was injected. Raw data were analyzed via BIA evaluation software with a blank subtraction (4-3). Finally, the kd/KD and Rmax of each scFv-human Fc to galectin-10-His was determined using the Fit Kinetics simultaneous ka/kd/Binding with mass transfer/Local Rmax on BIA evaluation software.

[2] = biological target: T2, cynomolgus galectin-10-His, WGS isoform (cynomolgus); assay: SPR Biacore (summary table)
T2 construct: also called cynoGal10-WGS; not shown: His tag
T2 chain: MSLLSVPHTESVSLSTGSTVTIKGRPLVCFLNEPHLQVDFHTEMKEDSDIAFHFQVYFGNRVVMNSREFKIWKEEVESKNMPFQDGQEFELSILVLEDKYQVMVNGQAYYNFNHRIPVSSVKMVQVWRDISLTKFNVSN
Protocol: as §1

human galectin-10-His [3] = biological target: T1, human galectin-10-His; assay: binding ELISA (summary table)
Protocol: (§2) In a similar setup to that used during the initial screening, the relative binding properties of the 11 new scFv-human Fc clones were analyzed by ELISA. Briefly, a Maxisorp plate was coated overnight with human or cynomolgus WGS or YRT isoforms of galectin-10-His at 0.2 μg/mL and blocked with PBS 1% casein, before being incubated with a serial dilution of the scFv-human Fc fusion molecules (from 100 nM, dilution 1/5, 8 points of dilutions). After several washing steps, detection of the bound scFv-human Fc was carried out with an anti-human Fc-HRP antibody (Jackson ImmunoResearch, Catalog 109-035-008). Absorbance was measured at 450 nm (reference at 620 nm) with Tecan instrument. Finally, the raw data (OD values) were plotted on GraphPad Prism 7.01. The EC50 values of each clone, calculated with a non-linear regression (log(agonist) vs. response Variable slope (four parameters)) are reported in Table 19 below. As a positive control, clone 6F05 from the previous galectin-10 antibody panel was included.

[4] = biological target: T2, cynomolgus galectin-10-His, WGS isoform; assay: binding ELISA (summary table)
Protocol: as §2

human galectin-10-His [5] = biological target: T1, human galectin-10-His; assay: ELISA, coated antigen 0.2 ug/mL
Protocol: as §2

[6] = biological target: T2, cynomolgus galectin-10-His, WGS isoform; assay: ELISA, coated antigen 0.2 ug/mL
Protocol: as §2

[7] = biological target: T3, cynomolgus galectin-10-His, YRT isoform (cynomolgus); assay: ELISA, coated antigen 0.2 ug/mL
T3 construct: also called cynoGal10-YRT; not shown: His tag
T3 chain: T2 chain with K23E, G24A, L31F, F69Y, K70R, I71T, S92R
Protocol: as §2

human galectin-10-His [8] = biological target: T1, human galectin-10-His; assay: SPR Biacore T3000, scFv-human Fc captured
Protocol: as §1

[9] = biological target: T2, cynomolgus galectin-10-His, WGS isoform; assay: SPR Biacore T3000, scFv-human Fc captured
Protocol: as §1

[10] = biological target: T3, cynomolgus galectin-10-His, YRT isoform; assay: binding ELISA (summary table)
Protocol: as §2

[11] = biological target: T4, TEV-cleaved wild-type recombinant human galectin-10 (soluble, in Fab complexes, or as recombinant galectin-10 … (human, UniProt Q05315 1-142)); assay: cell-based or functional assay
T4 sequence: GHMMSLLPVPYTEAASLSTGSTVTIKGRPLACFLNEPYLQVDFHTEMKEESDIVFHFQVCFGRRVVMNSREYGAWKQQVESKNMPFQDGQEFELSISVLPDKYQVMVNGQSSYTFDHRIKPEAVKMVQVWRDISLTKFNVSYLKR

[12] = biological target: T5, human galectin-10-His (recombinant human galectin-10 with TEV-cleavable N-terminal His-tag) (human); assay: ELISA, mouse IgG1 on coated galectin-10-His (0.2 ug/mL)
T5 construct: SEC-MALLS: dimer in solution; also called Gal10-His; humanGal10-His
T5 chain: T1 chain
Outline: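 Serial dilutions of each antibody (from 100 nM, 1/4 steps, 12 points) were incubated on plates coated overnight with the antigen. Bound IgG1 detected with anti-mouse Fc-HRP, absorbance at 450 nm (reference 620 nm). EC50 from four-parameter variable-slope non-linear regression of OD values.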

[13] = biological target: T5, human galectin-10-His (recombinant …); assay: BLI tandem on galectin-10-His; buffer in place of the saturating antibody
Protocol: In order to identify the galectin-10 binding sites of the different clones, an epitope mapping method (TANDEM), using the BLI technology, was established. Briefly, the galectin-10-His was captured on anti-HIS 1K sensor tips, before incubation with an excess of one antibody (called the “saturating” antibody) then directly transferred to a solution containing the “competitor” antibody at a suboptimal concentration. If the “saturating” and the competitor antibody bind to the same binding sites, no binding of “competitor” will be detected (expressed in nm shift).

[14] = biological target: T5, human galectin-10-His (recombinant …); assay: BLI tandem on galectin-10-His; competitor: saturating 1C09 mIgG1 (10 ug/mL)
Outline: (§3)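 Tandem BLI binning: antigen captured via His-tag, blocked with one antibody in excess, then probed with a second at suboptimal level.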

[15] = biological target: T5, human galectin-10-His (recombinant …); assay: BLI tandem on galectin-10-His; competitor: saturating 1D11 mIgG1 (10 ug/mL)
Outline: as §3

[16] = biological target: T5, human galectin-10-His (recombinant …); assay: BLI tandem on galectin-10-His; competitor: saturating 2C07 mIgG1 (10 ug/mL)
Outline: as §3

[17] = biological target: T5, human galectin-10-His (recombinant …); assay: BLI tandem on galectin-10-His; competitor: saturating 2F09 mIgG1 (10 ug/mL)
Outline: as §3

[18] = biological target: T5, human galectin-10-His (recombinant …); assay: BLI tandem on galectin-10-His; competitor: saturating 4E08 mIgG1 (10 ug/mL)
Outline: as §3

[19] = biological target: T5, human galectin-10-His (recombinant …); assay: BLI tandem on galectin-10-His; competitor: saturating 6A05 mIgG1 (10 ug/mL)
Outline: as §3

[20] = biological target: T5, human galectin-10-His (recombinant …); assay: BLI tandem on galectin-10-His; competitor: saturating 6A08 mIgG1 (10 ug/mL)
Outline: as §3

[21] = biological target: T5, human galectin-10-His (recombinant …); assay: BLI tandem on galectin-10-His; competitor: saturating 6B06 mIgG1 (10 ug/mL)
Outline: as §3

[22] = biological target: T5, human galectin-10-His (recombinant …); assay: BLI tandem on galectin-10-His; competitor: saturating 6E10 mIgG1 (10 ug/mL)
Outline: as §3

[23] = biological target: T5, human galectin-10-His (recombinant …); assay: BLI tandem on galectin-10-His; competitor: saturating 6F06 mIgG1 (10 ug/mL)
Outline: as §3

[24] = biological target: T5, human galectin-10-His (recombinant …); assay: BLI tandem on galectin-10-His; isotype control as saturating antibody (10 ug/mL)
Outline: as §3

[25] = biological target: T5, human galectin-10-His (recombinant …); assay: SPR Biacore T3000, mouse IgG1 captured by anti-mouse Fc, galectin-10-His as analyte
Outline: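 Polyclonal anti-mouse Fc on a CM5 chip (8000 RU) captured each mouse IgG1 (1.5 μg/mL) to around 150 RU. Galectin-10-His was then injected as a 1:2 serial dilution from 5 μg/mL in HBS-EP pH7.4. After blank subtraction, kd/KD and Rmax came from a simultaneous ka/kd fit with mass transfer and local Rmax.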

B3: 6F06 mouse IgG1 (antibody, V domains shown)
VH: QVQLVESGGGLVQPGGSLRLSCAASEFTFSRYSMSWVRQAPGKGLEWVSTINSGGGSTSYVDSVKGRFTISRDNAKNTLYLQMNSLKPEDTAVYYCTKSQGGISFSTQYGMDYWGKGTLVTVSS
VL: NFMLTQPSAVSVSLGQTARITCQGGNFGRYYANWYQQKPGQAPVLVIYKDSERPSGIPERFSGSSSGDTATLTISGAQAEDESDYYCQSGSVSDNAVFGGGTHLAVL
notes: also called 6F06 mIgG1
100% Solubilization of CLC (Conc uM) [11]: 7.57 µM
Bmax [12]: 2.93 OD
EC50 [12]: 0.08 nM
binding signal (nm) [13]: 1.22 nm
binding signal (nm) [14]: 0 nm
binding signal (nm) [15]: 0.06 nm
binding signal (nm) [16]: 0.03 nm
binding signal (nm) [17]: 0 nm
binding signal (nm) [18]: 0.02 nm
binding signal (nm) [19]: 0.05 nm
binding signal (nm) [20]: 0 nm
binding signal (nm) [21]: 0.03 nm
binding signal (nm) [22]: -0.03 nm
binding signal (nm) [23]: 0.04 nm
binding signal (nm) [24]: 1.15 nm
Kd [25]: 0.7 nM
koff [25]: 0.00487 s⁻¹

B4: 7B07 scFv-human Fc (Fc fusion)
scFv: QVQLVESGGGLVQPGGSLRLSCAASGFTFRSYDMSWVRQAPGKGPEWVSAIKNGGGITYYADSVKGRFTISRDNAKNTLYLQMNSLKPEDTAVYYCATTHGIGTLGFGSWGQGTQVTVSSGGGGSGGGGSGGGGSSYELTQSASVSVALTQTAKITCDGNNIGSKSAQWYQQKPGQAPALVIYADEYRPEGIPERFSGSNSGNTATLIISGAQAEDEADYYCQVWDGSAAVFGRGTHLTVL
notes: also called 007B07; not shown: CH2-CH3 constant domains of human IgG1 (pUPEX50 scFv-Fc fusion vector)
Kd (human galectin-10-His [1]): 0.8 nM
koff (human galectin-10-His [1]): 0.00124 s⁻¹
kon (human galectin-10-His [1]): 1.5e+06 M⁻¹ s⁻¹
Kd [2]: 1.5 nM
koff [2]: 0.0766 s⁻¹
kon [2]: 5e+07 M⁻¹ s⁻¹
EC50 (human galectin-10-His [3]): 1.11 nM
EC50 [4]: 0.82 nM
Bmax (human galectin-10-His [5]): 0.6 OD
EC50 (human galectin-10-His [5]): 1.11 nM
Bmax [6]: 0.6 OD
EC50 [6]: 0.82 nM
Bmax [7]: 0 OD
binding result [7]: no binding (tested: serial dilution from 100 nM)
Kd (human galectin-10-His [8]): 0.8 nM
koff (human galectin-10-His [8]): 0.00124 s⁻¹
kon (human galectin-10-His [8]): 1.5e+06 M⁻¹ s⁻¹
Kd [9]: 1.5 nM
koff [9]: 0.0766 s⁻¹
kon [9]: 5e+07 M⁻¹ s⁻¹

The next lines start with the values.

Kd (human galectin-10-His [1]): 5.4 nM
koff (human galectin-10-His [1]): 0.00203 s⁻¹
kon (human galectin-10-His [1]): 370000 M⁻¹ s⁻¹
Kd [2]: 7.9 nM
koff [2]: 0.00185 s⁻¹
kon [2]: 240000 M⁻¹ s⁻¹
EC50 (human galectin-10-His [3]): 0.77 nM
EC50 [4]: 10.4 nM
Bmax (human galectin-10-His [5]): 1.5 OD
EC50 (human galectin-10-His [5]): 0.77 nM
Bmax [6]: 2.5 OD
Bmax [7]: 2.5 OD
Kd (human galectin-10-His [8]): 5.4 nM
koff (human galectin-10-His [8]): 0.00203 s⁻¹
kon (human galectin-10-His [8]): 370000 M⁻¹ s⁻¹
Kd [9]: 7.9 nM
koff [9]: 0.00185 s⁻¹
kon [9]: 240000 M⁻¹ s⁻¹
B1: 11F02 scFv-human Fc (Fc fusion)
scFv: ELQVVESGGGLVQPGGSLRLSCAASGFTFSTNYMNWVRQAPGKGLEWVSGITSHGARTYYADSVKGRFTISRDNSKNTLYLQMNSLKPEDTALYYCARTDHASLDAWGQGTLVTVSSGGGGSGGGGSGGGGSQTVVTQEPSLSVSPGGTVTLTCGLSSGSVTSSNYPGWYQQKPGQAPRTLIYNTNSRYSGVPNRFSGSISGNKAALTITGAQPEDEADYYCALYMGSSSYNTVFGGGTHLTVL
notes: also called 011F02; not shown: CH2-CH3 constant domains of human IgG1 (pUPEX50 scFv-Fc fusion vector)

Kd (human galectin-10-His [1]): 0.3 nM
koff (human galectin-10-His [1]): 0.00025 s⁻¹
kon (human galectin-10-His [1]): 910000 M⁻¹ s⁻¹
EC50 (human galectin-10-His [3]): 0.08 nM
EC50 [10]: 0.04 nM
Bmax (human galectin-10-His [5]): 1.2 OD
EC50 (human galectin-10-His [5]): 0.08 nM
Bmax [7]: 3 OD
EC50 [7]: 0.04 nM
Kd (human galectin-10-His [8]): 0.3 nM
koff (human galectin-10-His [8]): 0.00025 s⁻¹
kon (human galectin-10-His [8]): 910000 M⁻¹ s⁻¹
B2: 10A06 scFv-human Fc (Fc fusion)
scFv: QVQLVESGGGLVQPGGSLRLSCAASGFTFGNYDMSWVRQAPGKGPEWVSDINSGGGSTYYADSVKGRFTISRDNAKNSLLLQMNSLKPEDTAVYYCATGYTGYYYWGQGTQVTVSSGGGGSGGGGSGGGGSQTVVTQEPSLSVSPGGTVTLTCGLSSGSVTSSNYPAWYQQTPGQAPRALIYSINSRHSGVPDRFSGSISGNKAALTITGAQAEDEADYYCTLYMGTGSNNVVFGGGTHLTVL
notes: also called 010A06; not shown: CH2-CH3 constant domains of human IgG1 (pUPEX50 scFv-Fc fusion vector)
